Source: paper PMC10397247

Experiments:
4H2944-bA = molecular target: T1, 4H2944-bA; assay: two-hybrid library CCNG1;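 further: natural log of median RNA to DNA barcode read ratio; higher means stronger binding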
T1 chain: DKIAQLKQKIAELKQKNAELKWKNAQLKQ

4H342-bA = molecular target: T2, 4H342-bA; assay: two-hybrid library CCNG1;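 further: natural log of median RNA to DNA barcode read ratio; higher means stronger binding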
T2 chain: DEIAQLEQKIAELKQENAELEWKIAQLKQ

4H48-bA = molecular target: T3, 4H48-bA; assay: two-hybrid library CCNG1;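 further: natural log of median RNA to DNA barcode read ratio; higher means stronger binding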
T3 chain: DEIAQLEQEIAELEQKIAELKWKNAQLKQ

4H491-bA = molecular target: T4, 4H491-bA; assay: two-hybrid library CCNG1;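 further: natural log of median RNA to DNA barcode read ratio; higher means stronger binding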
T4 chain: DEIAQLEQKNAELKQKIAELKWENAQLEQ

O13 = molecular target: T5, O13; assay: two-hybrid library CCNG1
T5 chain: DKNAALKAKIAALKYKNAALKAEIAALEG

O14 [1] = molecular target: T6, O14; assay: two-hybrid library CCNG1
T6 chain: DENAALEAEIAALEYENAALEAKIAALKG

O15 [2] = molecular target: T7, O15; assay: two-hybrid library CCNG1
T7 chain: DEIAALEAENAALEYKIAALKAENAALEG

O16 [3] = molecular target: T8, O16; assay: two-hybrid library CCNG1
T8 chain: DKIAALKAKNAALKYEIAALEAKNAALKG

O2 [4] = molecular target: T9, O2; assay: two-hybrid library CCNG1
T9 chain: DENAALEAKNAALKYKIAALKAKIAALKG

O3 [5] = molecular target: T10, O3; assay: two-hybrid library CCNG1
T10 chain: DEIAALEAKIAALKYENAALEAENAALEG

O4 [6] = molecular target: T11, O4; assay: two-hybrid library CCNG1
T11 chain: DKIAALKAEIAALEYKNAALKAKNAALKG

O5 [7] = molecular target: T12, O5; assay: two-hybrid library CCNG1
T12 chain: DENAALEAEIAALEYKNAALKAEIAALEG

O6 [8] = molecular target: T13, O6; assay: two-hybrid library CCNG1
T13 chain: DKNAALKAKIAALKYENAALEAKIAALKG

O7 [9] = molecular target: T14, O7; assay: two-hybrid library CCNG1
T14 chain: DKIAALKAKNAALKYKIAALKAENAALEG

O8 [10] = molecular target: T15, O8; assay: two-hybrid library CCNG1
T15 chain: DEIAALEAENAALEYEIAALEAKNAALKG

O9 [11] = molecular target: T16, O9; assay: two-hybrid library CCNG1
T16 chain: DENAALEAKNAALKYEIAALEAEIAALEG

O14 [12] = molecular target: T17, O14; assay: two-hybrid library CC0; conditions: mean of both orientations
T17 chain: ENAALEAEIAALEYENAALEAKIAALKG

O15 [13] = molecular target: T18, O15; assay: two-hybrid library CC0; conditions: mean of both orientations
T18 chain: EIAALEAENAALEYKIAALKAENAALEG

O16 [14] = molecular target: T19, O16; assay: two-hybrid library CC0; conditions: mean of both orientations
T19 chain: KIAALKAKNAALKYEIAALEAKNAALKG

O2 [15] = molecular target: T20, O2; assay: two-hybrid library CC0; conditions: mean of both orientations
T20 chain: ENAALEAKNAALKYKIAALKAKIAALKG

O3 [16] = molecular target: T21, O3; assay: two-hybrid library CC0; conditions: mean of both orientations
T21 chain: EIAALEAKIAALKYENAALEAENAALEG

O4 [17] = molecular target: T22, O4; assay: two-hybrid library CC0; conditions: mean of both orientations
T22 chain: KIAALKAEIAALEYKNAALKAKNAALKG

O5 [18] = molecular target: T23, O5; assay: two-hybrid library CC0; conditions: mean of both orientations
T23 chain: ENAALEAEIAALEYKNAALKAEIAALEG

O6 [19] = molecular target: T24, O6; assay: two-hybrid library CC0; conditions: mean of both orientations
T24 chain: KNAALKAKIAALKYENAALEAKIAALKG

O7 [20] = molecular target: T25, O7; assay: two-hybrid library CC0; conditions: mean of both orientations
T25 chain: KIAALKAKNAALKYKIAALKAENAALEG

O8 [21] = molecular target: T26, O8; assay: two-hybrid library CC0; conditions: mean of both orientations
T26 chain: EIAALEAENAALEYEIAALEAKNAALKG

O9 [22] = molecular target: T27, O9; assay: two-hybrid library CC0; conditions: mean of both orientations
T27 chain: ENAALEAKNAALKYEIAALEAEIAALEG

4H235-bH = molecular target: T28, 4H235-bH; assay: two-hybrid library CCNG1
T28 chain: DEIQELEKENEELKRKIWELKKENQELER

4H2444-bH = molecular target: T29, 4H2444-bH; assay: two-hybrid library CCNG1
T29 chain: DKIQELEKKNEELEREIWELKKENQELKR

4H2518-bH = molecular target: T30, 4H2518-bH; assay: two-hybrid library CCNG1
T30 chain: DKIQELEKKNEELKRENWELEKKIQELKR

4H2585-bH = molecular target: T31, 4H2585-bH; assay: two-hybrid library CCNG1
T31 chain: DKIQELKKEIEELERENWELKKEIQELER

4H264-bH = molecular target: T32, 4H264-bH; assay: two-hybrid library CCNG1
T32 chain: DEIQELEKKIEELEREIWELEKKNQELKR

4H2760-bH = molecular target: T33, 4H2760-bH; assay: two-hybrid library CCNG1
T33 chain: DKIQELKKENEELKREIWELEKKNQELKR

4H2859-bH = molecular target: T34, 4H2859-bH; assay: two-hybrid library CCNG1
T34 chain: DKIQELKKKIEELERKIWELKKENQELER

4H2931-bH = molecular target: T35, 4H2931-bH; assay: two-hybrid library CCNG1
T35 chain: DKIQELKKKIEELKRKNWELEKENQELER

4H3041-bH = molecular target: T36, 4H3041-bH; assay: two-hybrid library CCNG1
T36 chain: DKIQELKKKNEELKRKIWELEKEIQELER

4H3297-bH = molecular target: T37, 4H3297-bH; assay: two-hybrid library CCNG1
T37 chain: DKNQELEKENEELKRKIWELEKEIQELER

4H3364-bH = molecular target: T38, 4H3364-bH; assay: two-hybrid library CCNG1
T38 chain: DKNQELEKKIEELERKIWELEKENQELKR

4H3381-bH = molecular target: T39, 4H3381-bH; assay: two-hybrid library CCNG1
T39 chain: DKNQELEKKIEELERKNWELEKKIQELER

4H349-bH = molecular target: T40, 4H349-bH; assay: two-hybrid library CCNG1
T40 chain: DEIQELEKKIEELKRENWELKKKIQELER

4H56-bH = molecular target: T41, 4H56-bH; assay: two-hybrid library CCNG1
T41 chain: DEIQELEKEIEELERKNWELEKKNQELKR

4H730-bH = molecular target: T42, 4H730-bH; assay: two-hybrid library CCNG1
T42 chain: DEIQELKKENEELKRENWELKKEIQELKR

4H796-bH = molecular target: T43, 4H796-bH; assay: two-hybrid library CCNG1
T43 chain: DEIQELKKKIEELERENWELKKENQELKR

4H932-bH = molecular target: T44, 4H932-bH; assay: two-hybrid library CCNG1
T44 chain: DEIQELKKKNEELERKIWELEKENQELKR

4H949-bH = molecular target: T45, 4H949-bH; assay: two-hybrid library CCNG1
T45 chain: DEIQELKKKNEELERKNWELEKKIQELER

P3A = molecular target: T46, P3A; assay: two-hybrid library CCNG1
T46 chain: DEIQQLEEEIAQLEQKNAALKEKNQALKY

P4A = molecular target: T47, P4A; assay: two-hybrid library CCNG1
T47 chain: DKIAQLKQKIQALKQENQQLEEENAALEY

P5A = molecular target: T48, P5A; assay: two-hybrid library CCNG1
T48 chain: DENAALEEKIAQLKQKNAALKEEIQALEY

P6A = molecular target: T49, P6A; assay: two-hybrid library CCNG1
T49 chain: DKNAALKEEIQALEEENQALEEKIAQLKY

P7A = molecular target: T50, P7A; assay: two-hybrid library CCNG1
T50 chain: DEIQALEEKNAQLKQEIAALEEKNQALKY

P8A = molecular target: T51, P8A; assay: two-hybrid library CCNG1
T51 chain: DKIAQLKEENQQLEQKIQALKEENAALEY

P9A = molecular target: T52, P9A; assay: two-hybrid library CCNG1
T52 chain: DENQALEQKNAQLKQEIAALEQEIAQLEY

4H3632-bN = molecular target: T53, 4H3632-bN; assay: two-hybrid library CCNG1
T53 chain: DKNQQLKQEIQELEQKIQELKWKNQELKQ

4H496-bN = molecular target: T54, 4H496-bN; assay: two-hybrid library CCNG1
T54 chain: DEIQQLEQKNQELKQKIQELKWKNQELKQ

P1mSN = molecular target: T55, P1mSN; assay: two-hybrid library CCNG1
T55 chain: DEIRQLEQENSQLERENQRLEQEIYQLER

P8SH = molecular target: T56, P8SH; assay: two-hybrid library CCNG1
T56 chain: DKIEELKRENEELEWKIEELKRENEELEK

DKIAQLKQKIAELKQKNAELKWKNAQLKQ [4H2944-bA]
interaction score (4H2944-bA): -0.797 | interaction score (4H342-bA): 1.77 | interaction score (4H48-bA): -1.05 | interaction score (4H491-bA): -0.569

DKNAALKAKIAALKYKNAALKAEIAALEG [O13]
interaction score (O13): -2.48 | interaction score (O14 [1]): 1.68 | interaction score (O15 [2]): 1.46 | interaction score (O16 [3]): -2.61 | interaction score (O2 [4]): -2.42 | interaction score (O3 [5]): -2.26 | interaction score (O4 [6]): -2.24 | interaction score (O5 [7]): -1.38 | interaction score (O6 [8]): -1.32 | interaction score (O7 [9]): -2.53 | interaction score (O8 [10]): -1.26 | interaction score (O9 [11]): -2.39

ENAALEAEIAALEYENAALEAKIAALKG
interaction score (O14 [12]): -2.52 | interaction score (O15 [13]): -2.74 | interaction score (O16 [14]): 0.961 | interaction score (O2 [15]): -2.38 | interaction score (O3 [16]): -2.51 | interaction score (O4 [17]): -2.52 | interaction score (O5 [18]): -0.24 | interaction score (O6 [19]): 0.177 | interaction score (O7 [20]): -1.03 | interaction score (O8 [21]): -2.58 | interaction score (O9 [22]): -2.64

DEIQELEKENEELKRKIWELKKENQELER [4H235-bH]
interaction score (4H235-bH): 0.982 | interaction score (4H2444-bH): 0.0109 | interaction score (4H2518-bH): -0.135 | interaction score (4H2585-bH): -1.55 | interaction score (4H264-bH): -0.718 | interaction score (4H2760-bH): 1.12 | interaction score (4H2859-bH): 0.589 | interaction score (4H2931-bH): -0.301 | interaction score (4H2944-bA): -0.835 | interaction score (4H3041-bH): 0.0126 | interaction score (4H3297-bH): 0.0762 | interaction score (4H3364-bH): -0.442 | interaction score (4H3381-bH): 0 | interaction score (4H349-bH): 0.108 | interaction score (4H56-bH): 0.0558 | interaction score (4H730-bH): -0.176 | interaction score (4H796-bH): -0.693 | interaction score (4H932-bH): -0.443 | interaction score (4H949-bH): -0.845

DEIQQLEEEIAQLEQKNAALKEKNQALKY [P3A]
interaction score (P3A): -0.882 | interaction score (P4A): 2.6 | interaction score (P5A): -0.901 | interaction score (P6A): -0.905 | interaction score (P7A): -0.23 | interaction score (P8A): -0.435 | interaction score (P9A): 0.0927

DKNQQLKQEIQELEQKIQELKWKNQELKQ [4H3632-bN]
interaction score (4H3632-bN): 1.05 | interaction score (4H496-bN): -0.174 | interaction score (P1mSN): -0.649

DENAALEAEIAALEYENAALEAKIAALKG
interaction score (O14 [1]): -2.21 | interaction score (O15 [2]): -1.64 | interaction score (O16 [3]): 0.545 | interaction score (O2 [4]): -1.4 | interaction score (O3 [5]): -1.94 | interaction score (O4 [6]): -1.11 | interaction score (O5 [7]): 0.398 | interaction score (O6 [8]): 0.213 | interaction score (O7 [9]): 0.14 | interaction score (O8 [10]): -2.34 | interaction score (O9 [11]): -2.25

DKIEELKRENEELEWKIEELKRENEELEK [P8SH]
interaction score (P8SH): -0.00526
